The supplement of paper PMC11246515
± gives the standard deviation of the averaged measurements.

Experiment: total protein half-life in vivo (active degradation + dilution); higher = more stable protein
[1] = E. coli NCM3722 delta-lon, growth: N-lim chemostat, doubling time 6 h
[2] = E. coli NCM3722 delta-smpB, growth: N-lim chemostat, doubling time 6 h
[3] = wild type E. coli NCM3722, growth: C-lim chemostat, doubling time 3 h
[4] = wild type E. coli NCM3722, growth: C-lim chemostat, doubling time 6 h
[5] = wild type E. coli NCM3722, growth: C-lim chemostat, doubling time 12 h
[6] = wild type E. coli NCM3722, growth: N-lim chemostat, doubling time 6 h
[7] = wild type E. coli NCM3722, growth: N-lim chemostat, doubling time 12 h
[8] = wild type E. coli NCM3722, growth: P-lim chemostat, doubling time 6 h
[9] = wild type E. coli NCM3722, growth: P-lim chemostat, doubling time 12 h
[10] = E. coli NCM3722 delta-clpP delta-lon delta-hslV, growth: N-lim chemostat, doubling time 6 h
[11] = E. coli NCM3722 delta-clpP, growth: N-lim chemostat, doubling time 6 h
[12] = E. coli NCM3722 delta-hslV, growth: N-lim chemostat, doubling time 6 h

Row | Sequence | total protein half-life in vivo [1] | total protein half-life in vivo [2] | total protein half-life in vivo [3] | total protein half-life in vivo [4] | total protein half-life in vivo [5] | total protein half-life in vivo [6] | total protein half-life in vivo [7] | total protein half-life in vivo [8] | total protein half-life in vivo [9] | total protein half-life in vivo [10] | total protein half-life in vivo [11] | total protein half-life in vivo [12]
1 | MAESFTTTNRYFDNKHYPRGFSRHGDFTIKEAQLLERHGYAFNELDLGKREPVTEEEKLFVAVCRGEREPVTEAERVWSKYMTRIKRPKRFHTLSGGKPQVEGAEDYTDSDD [P0ADN2] | 5.14 ± 0.96 h | 3.28 ± 0.088 h | 2.19 ± 0.043 h | 4.55 ± 0.35 h | 5.73 h | 3.09 ± 0.15 h | 5.68 ± 0.092 h | 3.14 ± 0.43 h | 5.53 ± 0.6 h |  |  | 
2 | MAETKIVVGPQPFSVGEEYPWLAERDEDGAVVTFTGKVRNHNLGDSVNALTLEHYPGMTEKALAEIVDEARNRWPLGRVTVIHRIGELWPGDEIVFVGVTSAHRSSAFEAGQFIMDYLKTRAPFWKREATPEGDRWVEARESDQQAAKRW | 4.42 ± 0.088 h | 3.5 ± 0.33 h | 2.7 ± 0.15 h | 5.78 ± 0.33 h | 8.46 ± 0.13 h | 4.573 ± 0.012 h | 6.78 h | 6.8 ± 1.3 h | 11.1 ± 0.62 h | 4.68 ± 0.7 h | 3.99 ± 0.26 h | 5.32 ± 0.47 h
3 | MAEWSGEYISPYAEHGKKSEQVKKITVSIPLKVLKILTDERTRRQVNNLRHATNSELLCEAFLHAFTGQPLPDDADLRKERSDEIPEAAKEIMREMGINPETWEY [P0A8U6] | 6.2 ± 0.13 h | 6.26 ± 0.61 h | 3.19 ± 0.061 h | 5.63 ± 0.29 h | 6.09 h | 4.87 ± 0.35 h | 10.7 ± 6.7 h | 4.35 ± 0.99 h | 12 ± 4.2 h | > 8 h | 5.7 h | 5.96 ± 0.098 h
4 | MAFKFKTFAAVGALIGSLALVGCGQDEKDPNHIKVGVIVGAEQQVAEVAQKVAKDKYGLDVELVTFNDYVLPNEALSKGDIDANAFQHKPYLDQQLKDRGYKLVAVGNTFVYPIAGYSKKIKSLDELQDGSQVAVPNDPTNLGRSLLLLQKVGLIKLKDGVGLLPTVLDVVENPKNLKIVELEAPQLPRSLDDAQIALAVINTTYASQIGLTPAKDGIFVEDKESPYVNLIVTREDNKDAENVKKFVQAYQSDEVYEAANKVFNGGAVKGW | 6.95 ± 0.8 h | 5.84 ± 0.36 h | 3.04 ± 0.097 h | 6.52 ± 0.23 h | 11.6 ± 0.54 h | 5.85 ± 0.088 h | 12.69 ± 0.014 h | 5.99 ± 0.093 h | 13 ± 0.76 h | 5.86 ± 0.32 h | 6.85 ± 0.96 h | 6.15 ± 0.22 h
5 | MAFRMSEQPRTIKIYNLLAGTNEFIGEGDAYIPPHTGLPANSTDIAPPDIPAGFVAVFNSDESSWHLVEDHRGKTVYDVASGNALFISELGPLPENVTWLSPEGEFQKWNGTAWVKDTEAEKLFRIREAEETKNNLMQVASEHIAPLQDAADLEIATEEEISLLEAWKKYRVLLNRVDTSTAQDIEWPALP |  | 1.99 h | 1.9 h | 2.42 ± 0.94 h | 5.44 h | 3.48 h |  | 3.08 h | 7.47 ± 0.83 h | 3.03 h | 2.56 h | 1.99 h
6 | MAFSQAVSGLNAAATNLDVIGNNIANSATYGFKSGTASFADMFAGSKVGLGVKVAGITQDFTDGTTTNTGRGLDVAISQNGFFRLVDSNGSVFYSRNGQFKLDENRNLVNMQGLQLTGYPATGTPPTIQQGANPTNISIPNTLMAAKTTTTASMQINLNSSDPLPTVTPFSASNADSYNKKGSVTVFDSQGNAHDMSVYFVKTGDNNWQVYTQDSSDPNSIAKTATTLEFNANGTLVDGAMANNIATGAINGAEPATFSLSFLNSMQQNTGANNIVATTQNGYKPGDLVSYQINDDGTVVGNYSNEQTQLLGQIVLANFANNEGLASEGDNVWSATQSSGVALLGTAGTGNFGTLTNGALEASNVDLSKELVNMIVAQRNYQSNAQTIKTQDQILNTLVNLR |  | > 8 h | 1.2 ± 0.066 h | 2.23 ± 0.38 h | 3.51 ± 0.74 h |  |  |  |  | 3.24 ± 0.9 h | 7.78 h | 
7 | MAFTPFPPRQPTASARLPLTLMTLDDWALATITGADSEKYMQGQVTADVSQMAEDQHLLAAHCDAKGKMWSNLRLFRDGDGFAWIERRSVREPQLTELKKYAVFSKVTIAPDDERVLLGVAGFQARAALANLFSELPSKEKQVVKEGATTLLWFEHPAERFLIVTDEATANMLTDKLRGEAELNNSQQWLALNIEAGFPVIDAANSGQFIPQATNLQALGGISFKKGCYTGQEMVARAKFRGANKRALWLLAGSASRLPEAGEDLELKMGENWRRTGTVLAAVKLEDGQVVVQVVMNNDMEPDSIFRVRDDANTLHIEPLPYSLEE [P0ADE8] | 5.31 ± 0.23 h | 4.327 ± 0.0059 h | 2.8172 ± 0.0011 h | 5.45 ± 0.19 h | 9.03 ± 1.1 h | 5.25 ± 0.67 h | 7.936 ± 0.018 h | 5.54 ± 0.069 h | 11.3 ± 1.9 h | 5.041 ± 0.022 h | 4.7 ± 0.35 h | 5.202 ± 0.032 h
8 | MAGKTMIPLLAFAAWSGTGKTTLLKKLIPALCARGIRPGLIKHTHHDMDVDKPGKDSYELRKAGAAQTIVASQQRWALMTETPDEEELDLQFLASRMDTSKLDLILVEGFKHEEIAKIVLFRDGAGHRPEELVIDRHVIAVASDVPLNLDVALLDINDVEGLADFVVEWMQKQNG | 4.48 ± 0.64 h | 3.88 ± 0.7 h | 3.22 ± 0.15 h | 5.23 ± 0.18 h | 9.51 h | 4.01 ± 0.23 h | 5.54 ± 1.1 h | 5.85 h | 11 ± 0.32 h | 4.44 ± 0.4 h | 4.61 h | 4.37 ± 0.056 h
